# Measured values from the Human Domainome abundance scans (Beltran et al. 2025).
# ± gives the uncertainty stated by the source.
# B1: Double-stranded RNA-specific adenosine deaminase, residues 296 to 358; numbered along this chain, P55265 (parent)
# chain: MAEIKEKICDYLFNVSDSSALNLAKNIGLTKARDINAVLIDMERQGDVYRQGTTPPIWHLTDK
# Variants of: B1
# Assay: abundance fitness (aPCA) (normalised: wild type 0, dead -1); higher = more abundant; growth selection in yeast, the domain comes from the species named
# Conditions: Homo sapiens
row,Variant,abundance fitness
1,L60G,-0.436 ± 0.057
2,L60Y,-0.577 ± 0.072
3,L60M,-0.295 ± 0.06
4,L60Q,-0.764 ± 0.16
5,L60R,-0.45 ± 0.044
6,L60C,-0.662 ± 0.1
7,L60D,-0.356 ± 0.1
8,L60F,-0.598 ± 0.13
9,L60T,-0.551 ± 0.076
10,L60W,-0.793 ± 0.082
11,L60N,-0.425 ± 0.099
12,L60E,-0.226 ± 0.082
13,L60I,-0.628 ± 0.12
14,L60K,-0.494 ± 0.09
15,L60S,-0.437 ± 0.059
16,L60V,-0.516 ± 0.062
17,L60A,-0.196 ± 0.06
18,R50H,-0.274 ± 0.075
19,R50W,-0.722 ± 0.13
20,R50T,-0.406 ± 0.078
21,R50F,-0.601 ± 0.12
22,R50Q,0.036 ± 0.083
23,R50V,-0.381 ± 0.059
24,R50D,-0.761 ± 0.14

row,Variant,abundance fitness
1,R50L,-0.684 ± 0.065
2,R50M,-0.555 ± 0.1
3,R50G,-0.453 ± 0.053
4,R50N,-0.379 ± 0.073
5,R50A,-0.238 ± 0.061
6,R50I,-0.798 ± 0.11
7,R50S,-0.019 ± 0.044
8,R50K,0.12 ± 0.1
9,R50Y,-0.985 ± 0.19
10,R50E,-0.392 ± 0.073
11,G52E,-0.12 ± 0.067
12,G52V,-0.638 ± 0.062
13,G52A,-0.342 ± 0.055
14,G52D,-0.105 ± 0.054
15,G52T,-0.659 ± 0.081
16,G52C,-0.525 ± 0.056
17,G52Y,-0.765 ± 0.14
18,G52H,-0.234 ± 0.06
19,G52L,-0.764 ± 0.065
20,G52M,-0.812 ± 0.16
21,G52S,-0.387 ± 0.063
22,G52R,-0.489 ± 0.064
23,G52F,-0.901 ± 0.14
24,G52W,-0.518 ± 0.086

row,Variant,abundance fitness
1,G52K,-0.367 ± 0.1
2,G52I,-0.779 ± 0.12
3,G52N,-0.072 ± 0.069
4,T54F,-0.429 ± 0.12
5,T54L,-0.448 ± 0.05
6,T54A,-0.04 ± 0.065
7,T54P,-0.722 ± 0.1
8,T54R,-0.18 ± 0.046
9,T54G,-0.32 ± 0.05
10,T54K,-0.024 ± 0.055
11,T54W,-0.513 ± 0.077
12,T54V,-0.204 ± 0.053
13,T54S,0.127 ± 0.05
14,T54N,0.306 ± 0.064
15,T54C,-0.148 ± 0.087
16,T54E,0.093 ± 0.063
17,T54Y,-0.386 ± 0.081
18,T54H,0.045 ± 0.045
19,T53A,-0.033 ± 0.48
20,T53R,0.238 ± 0.21
21,T53I,-0.744 ± 0.17
22,W58A,-0.426 ± 0.057
23,W58T,-0.251 ± 0.043
24,W58C,-0.384 ± 0.095

row,Variant,abundance fitness
1,W58P,-0.409 ± 0.097
2,W58Q,-0.152 ± 0.071
3,W58I,-0.366 ± 0.1
4,W58D,-0.434 ± 0.075
5,W58R,-0.242 ± 0.054
6,W58V,-0.488 ± 0.053
7,W58F,-0.234 ± 0.11
8,W58S,-0.254 ± 0.054
9,W58M,-0.362 ± 0.06
10,W58H,-0.278 ± 0.093
11,W58K,-0.303 ± 0.042
12,W58N,-0.296 ± 0.091
13,W58Y,-0.095 ± 0.067
14,K63M,-0.619 ± 0.28
15,K63G,-0.442 ± 0.15
16,K63F,-0.217 ± 0.46
17,K63S,-0.367 ± 0.11
18,K63N,-0.302 ± 0.14
19,K63E,-0.234 ± 0.11
20,K63H,-0.374 ± 0.31
21,K63Q,-0.79 ± 0.41
22,K63Y,-0.634 ± 0.15
23,K63D,-0.162 ± 0.23
24,K63C,-0.258 ± 0.13

row,Variant,abundance fitness
1,K63T,-0.297 ± 0.11
2,K63P,-0.341 ± 0.12
3,K63R,0.032 ± 0.1
4,I57L,-0.281 ± 0.05
5,I57E,-0.257 ± 0.075
6,I57F,-0.637 ± 0.064
7,I57Q,-0.181 ± 0.068
8,I57S,-0.265 ± 0.057
9,I57V,-0.108 ± 0.048
10,I57D,-0.191 ± 0.087
11,I57A,-0.316 ± 0.051
12,I57H,-0.185 ± 0.11
13,I57P,-0.481 ± 0.079
14,I57M,-0.008 ± 0.062
15,I57R,-0.125 ± 0.047
16,I57Y,-0.846 ± 0.11
17,I57K,-0.149 ± 0.065
18,I57C,-0.567 ± 0.08
19,I57T,-0.035 ± 0.059
20,I57N,-0.352 ± 0.081
21,I57G,-0.449 ± 0.048
22,I57W,-0.476 ± 0.073
23,Y49C,0.078 ± 0.059
24,Y49T,0.135 ± 0.048

row,Variant,abundance fitness
1,Y49E,0.259 ± 0.057
2,Y49Q,0.051 ± 0.11
3,Y49G,-0.076 ± 0.055
4,Y49W,-0.044 ± 0.071
5,Y49H,-0.074 ± 0.076
6,Y49I,0.053 ± 0.067
7,Y49L,-0.27 ± 0.044
8,Y49R,0.007 ± 0.045
9,Y49K,0.161 ± 0.064
10,Y49P,-0.519 ± 0.071
11,Y49V,0.177 ± 0.052
12,Y49M,0.003 ± 0.062
13,Y49S,0.111 ± 0.046
14,Y49F,-0.167 ± 0.064
15,Y49N,-0.34 ± 0.084
16,Q51F,-0.658 ± 0.095
17,Q51I,0.088 ± 0.051
18,Q51E,0.176 ± 0.084
19,Q51G,-0.215 ± 0.057
20,Q51N,-0.051 ± 0.084
21,Q51C,0.051 ± 0.046
22,Q51A,-0.162 ± 0.049
23,Q51D,0.22 ± 0.072
24,Q51W,-0.407 ± 0.067

row,Variant,abundance fitness
1,Q51T,0.494 ± 0.052
2,Q51H,-0.094 ± 0.077
3,Q51P,-0.861 ± 0.1
4,Q51S,0.401 ± 0.045
5,Q51K,0.053 ± 0.054
6,Q51V,0.208 ± 0.046
7,D62S,-0.083 ± 0.048
8,D62Q,0.017 ± 0.088
9,D62C,-0.185 ± 0.062
10,D62E,0.072 ± 0.078
11,D62A,0.053 ± 0.046
12,D62N,-0.432 ± 0.092
13,D62T,-0.15 ± 0.074
14,D62L,-0.437 ± 0.063
15,D62W,-0.445 ± 0.087
16,D62P,-0.333 ± 0.094
17,D62K,0.002 ± 0.057
18,D62M,-0.409 ± 0.11
19,D62G,-0.19 ± 0.043
20,D62Y,-0.437 ± 0.077
21,D62R,-0.167 ± 0.052
22,D62I,-0.708 ± 0.15
23,G46A,-0.844 ± 0.087
